Results on 4 molecules are retold here after patent US7074761B1, “Peptides and production and use thereof” (Takeda Chemical Ind., Ltd., priority 1996, dated 2006).

Usually IC50 stands for the concentration that gives 50% inhibition. Lower therefore signals greater potency in that assay.

For test [1], the target named is T1, human SSTR4 (Homo sapiens, UniProt P31391).
T1 construct: expressed in transfected cells; host or cells: CHO(dhfr-) cells, clone SSTR4-1-2, plasmid pA-1-11-SSTR4 (vector pAKKO-111)
T1 sequence (P31391 whole entry): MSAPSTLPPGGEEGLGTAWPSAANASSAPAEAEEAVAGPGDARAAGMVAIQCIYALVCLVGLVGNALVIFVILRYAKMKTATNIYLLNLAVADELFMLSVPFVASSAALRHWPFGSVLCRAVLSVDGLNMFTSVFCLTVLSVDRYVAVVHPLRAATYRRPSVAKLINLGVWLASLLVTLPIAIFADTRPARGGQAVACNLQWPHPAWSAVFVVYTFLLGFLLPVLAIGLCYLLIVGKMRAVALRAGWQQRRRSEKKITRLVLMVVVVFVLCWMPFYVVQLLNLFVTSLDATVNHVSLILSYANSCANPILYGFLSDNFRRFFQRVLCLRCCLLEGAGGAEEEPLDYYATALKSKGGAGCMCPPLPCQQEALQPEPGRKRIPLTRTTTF
The experiment in a line: [125I]-somatostatin binding inhibition, SSTR4 CHO cell membrane fraction. The note with it: 25° C., 60 minutes. On the procedure: CHO(dhfr^−) cells (1×10^6 cells) were cultured on HAM F12 medium containing 10% fetal bovine serum in a dish with a diameter of 8 cm for 24 hours. Into these cells was introduced 10 μg of the human SSTR4 DNA expression plasmid pA-1-11-SSTR4 obtained as described above in (2) by the calcium phosphate method (Cell Phect Transfection Kit; Pharmacia). At 24 hours after transfection, the medium was exchanged for DMEM containing 10% dialyzed fetal bovine serum, and cells forming a colony on this medium (namely DHFR^+ cells) were selected. Further, the cells selected were treated by the limiting dilution method for cloning from a single cell, and the cells thus cloned were measured for their somatostatin receptor protein expression ability by the binding assay described in Reference Example 1 (3). In this manner, a cell line with high somatostatin-binding activity, SSTR4-1-2, was selected.
The human somatostatin receptor expressing CHO cell lines SSTR1-8-3, SSTR2-HS5-9, SSTR3-15-19, SSTR4-1-2 and SSTR5-32-4 (10^9 cells each) were respectively suspended in phosphate buffered physiological saline supplemented with 5 mM EDTA (PBS-EDTA) and centrifuged. To each cell pellet was added 10 ml of cell homogenation buffer (10 mM NaHCO3, 5 mM EDTA, pH=7.5), followed by homogenation with a Polytron homogenizer. The homogenate was centrifuged at 400×g for 15 minutes, and the supernatant obtained was further centrifuged at 100,000×g for 1 hour to give a membrane fraction as a precipitate. […]
(§1) The membrane fractions prepared in Reference Example 6 were each diluted to 3 μg/ml with assay buffer. […] After filtration, the radioactivity of [^125I]-somatostatin remaining on the filter paper was measured. For each test substance, the binding inhibition percentage (%) was calculated according to the formula: PBM=(B−NSB)/(B0−NSB)×100 (where PBM: percent maximum binding; B: radioactivity when the test sample is added; B0: maximum bound radioactivity; NSB: non-specifically bound radioactivity). […]

The target of test [2] is T2, human SSTR5 (Homo sapiens, UniProt P35346).
T2 construct: expressed in transfected cells; host or cells: CHO(dhfr-) cells, clone SSTR5-32-4, plasmid pA-1-11-SSTR5 (vector pAKKO-111)
T2 sequence (P35346 whole entry): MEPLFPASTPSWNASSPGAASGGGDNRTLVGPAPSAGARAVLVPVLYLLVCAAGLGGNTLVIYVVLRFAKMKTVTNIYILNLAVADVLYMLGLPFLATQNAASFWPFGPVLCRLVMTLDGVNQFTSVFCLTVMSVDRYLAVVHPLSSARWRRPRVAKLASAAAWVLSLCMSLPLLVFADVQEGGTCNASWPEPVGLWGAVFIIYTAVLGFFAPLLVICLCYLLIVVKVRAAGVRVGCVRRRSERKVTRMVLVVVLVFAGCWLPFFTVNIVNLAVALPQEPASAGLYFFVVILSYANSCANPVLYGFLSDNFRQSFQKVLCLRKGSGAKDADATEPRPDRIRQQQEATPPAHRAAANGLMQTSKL
In words: [125I]-somatostatin binding inhibition, SSTR5 CHO cell membrane fraction. The note with it: 25° C., 60 minutes. The method, then:
CHO(dhfr^−) cells (1×10^6 cells) were cultured on HAM F12 medium containing 10% fetal bovine serum in a dish with a diameter of 8 cm for 24 hours. Into these cells was introduced 10 μg of the human SSTR5 cDNA expression plasmid pA-1-11-SSTR5 obtained as described above in (2) by the calcium phosphate method (Cell Phect Transfection Kit; Pharmacia). At 24 hours after transfection, the medium was exchanged for DMEM containing 10% dialyzed fetal bovine serum, and cells forming a colony on this medium (namely DHFR^+ cells) were selected. Further, the cells selected were treated by the limiting dilution method for cloning from a single cell, and the cells thus cloned were measured for their somatostatin receptor protein expression ability by the binding assay described in Reference Example 1 (3). In this manner, a cell line with high somatostatin-binding activity. SSTR5-32-4, was selected. […]
as §1

Test [3] has as its target T3, human somatostatin receptor protein subtype 2 (SSTR2) (human, UniProt P30874 1-369). In words: cell-based or functional assay.
The target of test [4] is T4, human somatostatin receptor protein subtype 3 (SSTR3) (human, UniProt P32745 1-418). The experiment in a line: cell-based or functional assay.
T4 sequence (P32745 whole entry): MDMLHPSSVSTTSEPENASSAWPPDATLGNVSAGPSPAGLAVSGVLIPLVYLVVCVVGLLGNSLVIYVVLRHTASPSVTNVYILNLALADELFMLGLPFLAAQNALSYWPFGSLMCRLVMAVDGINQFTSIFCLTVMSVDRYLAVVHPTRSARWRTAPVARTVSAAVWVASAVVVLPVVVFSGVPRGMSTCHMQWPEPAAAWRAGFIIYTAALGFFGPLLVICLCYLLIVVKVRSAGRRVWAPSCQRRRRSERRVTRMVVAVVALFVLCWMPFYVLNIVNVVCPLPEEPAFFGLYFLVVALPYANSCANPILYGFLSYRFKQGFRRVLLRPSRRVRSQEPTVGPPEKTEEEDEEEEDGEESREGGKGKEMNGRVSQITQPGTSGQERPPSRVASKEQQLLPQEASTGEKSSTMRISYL
Test [5] has as its target human somatostatin receptor protein subtype 4 (SSTR4) (human, UniProt P31391 1-388). The experiment in a line: cell-based or functional assay.
In test [6] the target is T5, human somatostatin receptor protein subtype 5 (SSTR5) (human, UniProt P35346 1-364). The experiment in a line: cell-based or functional assay.
T5 sequence (P35346 whole entry): as the sequence (P35346 whole entry) above
The target in test [7] is T3, human somatostatin receptor protein …. The experiment in a line: displacement of 200 pM [125I]-somatostatin from membrane fraction of CHO cells expressing the human receptor; filter binding, Hill plot. The method, then:
(§2) The membrane fractions prepared in Reference Example 6 were each diluted to 3 µg/ml with assay buffer. […] After 60 minutes of reaction at 25° C., each reaction mixture was suction-filtered using a polyethyleneimine-treated Whatman glass filter (GF-B). […] For each test substance, the binding inhibition percentage (%) was calculated according to the formula:
(§3) PBM=(B-NSB)/(B_0-NSB)×100 (where PBM: percent maximum binding; B: radioactivity when the test sample is added; B_0: maximum bound radioactivity; NSB: non-specifically bound radioactivity).

For test [8], the target named is T4, human somatostatin receptor protein …. Described as above. On the procedure:
as §2, §3

The target of test [9] is T5, human somatostatin receptor protein …. The description is as above. The method, then: as §2, §3
In test [10] the target is T6, human somatostatin receptor protein subtype 1 (SSTR1) (human, UniProt P30872 1-391).
T6 construct: whole, on cells; also called cell line SSTR1-8-3
T6 sequence (P30872 whole entry): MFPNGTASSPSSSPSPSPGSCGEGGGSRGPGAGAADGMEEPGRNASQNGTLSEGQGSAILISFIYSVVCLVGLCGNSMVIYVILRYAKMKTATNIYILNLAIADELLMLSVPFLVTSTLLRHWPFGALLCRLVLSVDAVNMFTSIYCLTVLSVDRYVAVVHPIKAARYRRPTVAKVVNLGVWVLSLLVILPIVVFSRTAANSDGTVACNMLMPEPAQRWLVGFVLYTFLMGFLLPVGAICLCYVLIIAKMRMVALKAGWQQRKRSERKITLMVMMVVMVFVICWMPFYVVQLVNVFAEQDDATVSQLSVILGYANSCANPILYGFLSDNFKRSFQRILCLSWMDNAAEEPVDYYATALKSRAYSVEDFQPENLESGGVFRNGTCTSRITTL
The description is as above. The method, then: as §2, §3

Where a SMILES comes first, the peptide text is derived from it. Bridges are numbered along the chain shown (N, C = ends). Where no end group is shown, it is not given here.

T3 sequence (P30874 whole entry): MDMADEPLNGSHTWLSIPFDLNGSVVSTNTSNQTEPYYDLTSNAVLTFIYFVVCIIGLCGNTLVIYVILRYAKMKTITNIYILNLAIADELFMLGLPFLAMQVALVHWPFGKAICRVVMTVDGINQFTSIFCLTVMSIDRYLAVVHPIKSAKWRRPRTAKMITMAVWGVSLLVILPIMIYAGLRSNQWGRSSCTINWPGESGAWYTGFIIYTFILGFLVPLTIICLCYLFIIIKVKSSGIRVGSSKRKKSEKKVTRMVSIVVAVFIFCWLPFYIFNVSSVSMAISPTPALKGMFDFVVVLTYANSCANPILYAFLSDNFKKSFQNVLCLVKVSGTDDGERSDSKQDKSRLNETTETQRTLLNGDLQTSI
human somatostatin receptor protein subtype 4 (SSTR4), sequence (P31391 whole entry): as the sequence (P31391 whole entry) above

As to `C[C@@H](O)[C@@H]1NC(=O)[C@H](CCCCN)NC(=O)[C@H](Cc2c[nH]c3ccccc23)NC(=O)[C@H](Cc2ccccc2)NC(=O)[C@H](Cc2ccccc2)NC(=O)[C@H](CC(N)=O)NC(=O)[C@H](CCCNC(=N)N)NC(=O)[C@@H](N)CSSC[C@@H](C(=O)N[C@@H](CCCCN)C(=O)O)NC(=O)[C@H](CO)NC(=O)[C@H](CO)NC(=O)[C@H](Cc2ccccc2)NC1=O` [hCS-13] (H-CRNFFWKTFSSCK-OH; disulfide 1-12; N-terminus and C-terminus assumed), the IC50 in [1] and in [2] was 0.5 nM in each case.
Turning to MPCRNFFWKTFSSCK (disulfide 3-14) [deletion type human peptide hCS-15], the “ED50 of inhibition of forskolin-stimulated intracellular cAMP accumulation” value in test [3] was determined as 7 nM; in test [4], 1 nM; in test [5], 0.2 nM; in test [6] it was 0.2 nM. Also, the IC50 in [7] worked out at 0.8 nM; in test [8], 0.9 nM.
As to DRMPCRNFFWKTFSSCK (disulfide 5-16) [human peptide hCS-17], the “ED50 of inhibition of forskolin-stimulated intracellular cAMP accumulation” value in [3] was found to be 5 nM; in [4], 1 nM; in test [5], 0.1 nM; in [6], 0.2 nM. The IC50 in test [7] worked out at 0.6 nM; in test [8] it was 0.6 nM; in [9], 0.4 nM.
For CRNFFWKTFSSCK (disulfide 1-12) [deletion type human peptide hCS-13], the IC50 in test [10] came to 6 nM; in test [7], 0.3 nM; in test [8], 0.7 nM.
